Measurements taken from patent US20050282743A1, “Molecular interactions in cells” (Arbor Vita Corporation, priority 2001, published 2005).

What was measured:
Experiment in all cases: G' assay
[1] = molecular target: T1, GST-LIMK1 PDZ domain 1 (Homo sapiens (Human)), P53667
T1 chain: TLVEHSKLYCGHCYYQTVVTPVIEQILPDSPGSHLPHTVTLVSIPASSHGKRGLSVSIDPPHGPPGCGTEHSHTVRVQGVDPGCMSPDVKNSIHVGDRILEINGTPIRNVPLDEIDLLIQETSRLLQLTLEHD

[2] = molecular target: GST-DLG2 PDZ domain 1 (Homo sapiens (Human)), Q15700
[3] = molecular target: T2, GST-FLJ11215 PDZ domain 1 (Mus musculus (Mouse)), O88952
T2 chain: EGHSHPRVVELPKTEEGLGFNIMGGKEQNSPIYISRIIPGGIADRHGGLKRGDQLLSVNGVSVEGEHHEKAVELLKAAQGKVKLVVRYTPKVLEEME

[4] = molecular target: GST-BAI-1 Associated Protein PDZ domain 3 (Homo sapiens (Human)), Q96QZ7
Chain of GST-BAI-1 Associated Protein PDZ domain 3 (Homo sapiens (Human)), Q96QZ7 (Q96QZ7 other isoform, or with tags, fused parts or gaps): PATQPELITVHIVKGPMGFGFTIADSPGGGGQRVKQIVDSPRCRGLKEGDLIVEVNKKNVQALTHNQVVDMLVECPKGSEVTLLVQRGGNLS

[5] = molecular target: T3, GST-Syntrophin gamma 2 PDZ domain 1 (Homo sapiens (Human)), Q9NY99
T3 chain: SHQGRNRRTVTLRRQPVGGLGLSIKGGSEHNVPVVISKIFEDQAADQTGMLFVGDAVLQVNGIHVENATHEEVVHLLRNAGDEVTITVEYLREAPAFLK

[6] = molecular target: T4, GST-EZRIN Binding Protein 50 PDZ domain 2 (Homo sapiens (Human)), O14745
T4 chain: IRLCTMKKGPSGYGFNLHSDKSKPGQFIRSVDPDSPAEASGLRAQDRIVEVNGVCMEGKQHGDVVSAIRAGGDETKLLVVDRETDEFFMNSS

[7] = molecular target: T5, GST-PDZK1 PDZ domains 2, 3, 4, Q5T2W1
T5 chain: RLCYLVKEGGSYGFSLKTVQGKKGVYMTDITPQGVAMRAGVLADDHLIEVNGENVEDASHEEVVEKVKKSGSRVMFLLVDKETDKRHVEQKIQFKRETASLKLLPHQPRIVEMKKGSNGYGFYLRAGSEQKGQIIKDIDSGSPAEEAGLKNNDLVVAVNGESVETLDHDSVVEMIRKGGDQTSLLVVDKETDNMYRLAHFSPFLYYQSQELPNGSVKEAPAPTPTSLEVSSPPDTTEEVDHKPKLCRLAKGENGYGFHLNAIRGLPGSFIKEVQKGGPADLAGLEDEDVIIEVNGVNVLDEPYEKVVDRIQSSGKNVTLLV

[8] = molecular target: T6, GST-PTPL1 PDZ domain 4 (Homo sapiens (Human)), Q12923
T6 chain: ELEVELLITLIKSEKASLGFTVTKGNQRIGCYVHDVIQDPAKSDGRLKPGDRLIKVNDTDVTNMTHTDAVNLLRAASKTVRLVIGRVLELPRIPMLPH

[9] = molecular target: T7, GST-DVL2 PDZ domain 1 (Homo sapiens (Human)), O14641
T7 chain: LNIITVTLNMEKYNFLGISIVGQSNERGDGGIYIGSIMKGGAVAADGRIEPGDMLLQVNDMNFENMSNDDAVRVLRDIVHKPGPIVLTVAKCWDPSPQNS

[10] = molecular target: T8, GST-MUPP1 PDZ domain 2 (Homo sapiens (Human)), O75970
T8 chain: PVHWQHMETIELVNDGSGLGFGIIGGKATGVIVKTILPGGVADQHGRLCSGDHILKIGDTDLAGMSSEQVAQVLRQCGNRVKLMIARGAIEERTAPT

[11] = molecular target: T9, GST-SYNTENIN PDZ domain 1 (Homo sapiens (Human)), O00560
T9 chain: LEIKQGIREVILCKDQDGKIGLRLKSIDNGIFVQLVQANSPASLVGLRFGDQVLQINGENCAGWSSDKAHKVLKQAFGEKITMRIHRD

[12] = molecular target: T10, GST-MUPP1 PDZ domain 3 (Homo sapiens (Human)), O75970
T10 chain: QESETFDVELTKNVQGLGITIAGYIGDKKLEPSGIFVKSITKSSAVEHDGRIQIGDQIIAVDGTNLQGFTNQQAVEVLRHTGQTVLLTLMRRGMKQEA

[13] = molecular target: T11, GST-KIAA1095 PDZ domain 1 (Homo sapiens (Human)), Q9UPQ7
T11 chain: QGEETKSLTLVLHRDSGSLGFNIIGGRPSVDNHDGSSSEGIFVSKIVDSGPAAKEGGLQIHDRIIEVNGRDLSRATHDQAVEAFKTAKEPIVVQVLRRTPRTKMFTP

[14] = molecular target: T12, GST-KIAA0340 PDZ domain 1 (Homo sapiens (Human)), Q86UR5
T12 chain: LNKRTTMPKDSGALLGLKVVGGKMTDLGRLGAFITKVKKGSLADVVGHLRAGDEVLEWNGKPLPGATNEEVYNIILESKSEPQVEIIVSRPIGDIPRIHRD

[15] = molecular target: T13, GST-GRIP 1 PDZ domain 5 (Homo sapiens (Human)), Q9Y3R0
T13 chain: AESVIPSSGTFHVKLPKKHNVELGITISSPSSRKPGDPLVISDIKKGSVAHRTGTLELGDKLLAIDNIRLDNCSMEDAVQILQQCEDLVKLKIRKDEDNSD

[16] = molecular target: GST-CARD14 PDZ domain 1 (Homo sapiens (Human)), Q9BXL6
Chain of GST-CARD14 PDZ domain 1 (Homo sapiens (Human)), Q9BXL6 (Q9BXL6 565-664): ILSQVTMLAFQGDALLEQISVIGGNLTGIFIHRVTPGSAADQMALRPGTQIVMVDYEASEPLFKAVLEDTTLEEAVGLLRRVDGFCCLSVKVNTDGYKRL

[17] = molecular target: T14, GST-X-11 beta PDZ domain 1 (Rattus norvegicus (Rat)), O35431
T14 chain: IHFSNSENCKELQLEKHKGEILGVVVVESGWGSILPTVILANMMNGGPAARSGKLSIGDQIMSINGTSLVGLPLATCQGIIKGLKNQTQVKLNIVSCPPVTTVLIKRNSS

[18] = molecular target: T15, GST-MUPP1 PDZ domain 8 (Homo sapiens (Human)), O75970
T15 chain: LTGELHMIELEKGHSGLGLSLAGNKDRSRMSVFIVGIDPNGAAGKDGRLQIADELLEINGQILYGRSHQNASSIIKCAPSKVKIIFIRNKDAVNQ
Note: key of the grades not given here.

B1: TAX (peptide)
peptide: QISPGGLEPPSEKHFRETEV
modifications: not checked
For B1, the Classification [1] was 1 A450 class, the Classification [2] was 2 A450 class and the Classification [3] was 1 A450 class. For the same binder, the Classification [4] was 1 A450 class and the Classification [5] was 1 A450 class.

B2: LPAP (peptide)
peptide: AWDDSARAAGGQGLHVTAL
modifications: not checked
With B2 the Classification [6] was 4 A450 class and the Classification [7] was 3 A450 class.

B3: AdenoE4 typ9 (peptide)
peptide: VGTLLLERVIFPSVKIATLV
modifications: not checked
With B3 the Classification [8] was 4 A450 class and the Classification [4] was 5 A450 class.

B4: MINT-1 (peptide)
peptide: KTMPAAMYRLLTAQEQPVYI
modifications: not checked
B4 showed a Classification [9] of 2 A450 class, a Classification [10] of 1 A450 class and a Classification [11] of 3 A450 class. It also gave a Classification [8] of 5 A450 class and a Classification [12] of 3 A450 class.

B5: a-actinin 2 (peptide)
peptide: VPGALDYAAFSSALYGESDL
modifications: not checked
B5 showed a Classification [5] of 1 A450 class.

B6: KIA 1481 (peptide)
peptide: PIPAGGCTFSGIFPTLTSPL
modifications: not checked
For B6, the Classification [6] was 2 A450 class, the Classification [13] was 1 A450 class and the Classification [7] was 2 A450 class.

B7: NMDA Glutamate Receptor 2C (cysteine-free) (peptide)
peptide: TQGFPGPATWRRISSLESEV
modifications: not checked
For B7, the Classification [1] was 1 A450 class, the Classification [2] was 4 A450 class and the Classification [3] was 1 A450 class. For the same binder, the Classification [13] was 1 A450 class, the Classification [4] was 1 A450 class and the Classification [5] was 2 A450 class.

B8: ephrin B2 (peptide)
peptide: ILNSIQVMRAQMNQIQSVEV
modifications: not checked
Work on B8 yielded a Classification [14] of 2 A450 class, a Classification [11] of 1 A450 class and a Classification [8] of 2 A450 class. It also gave a Classification [15] of 1 A450 class, a Classification [12] of 1 A450 class and a Classification [16] of 1 A450 class. For the same binder, the Classification [17] was 2 A450 class.

B9: catenin - delta 2 (peptide)
peptide: PYSELNYETSHYPASPDSWV
modifications: not checked
Work on B9 yielded a Classification [8] of 1 A450 class and a Classification [4] of 1 A450 class.

B10: CSPG4 (chondroitin sulfae proteoglycan 4, melanoma-associated) (peptide)
peptide: ELLQFCRTPNPALKNGQYWV
modifications: not checked
In the case of B10, the Classification [18] is reported as 2 A450 class, the Classification [9] is reported as 5 A450 class and the Classification [10] is reported as 5 A450 class. It also gave a Classification [11] of 2 A450 class, a Classification [8] of 5 A450 class and a Classification [15] of 1 A450 class.

B11: alpha-2A Adrenergic receptor (peptide)
peptide: HDFRRAFKKILARGDRKRIV
modifications: not checked
With B11 the Classification [18] was 1 A450 class, the Classification [14] was 1 A450 class and the Classification [16] was 1 A450 class. It also gave a Classification [17] of 2 A450 class.
